Data: patent publication US20260077041A1

Key:
[1] = molecular target: IL-17A (human) (UniProt Q16552); experiment: SPR (Biacore T200), drug captured on protein A chip, IL-17A as analyte, multi-cycle
[2] = molecular target: TNFα (human) (UniProt P01375); experiment: SPR (Biacore T200), drug captured on protein A chip, TNFα as analyte, multi-cycle
TNFα (human), sequence (P01375 77-233 limits assumed): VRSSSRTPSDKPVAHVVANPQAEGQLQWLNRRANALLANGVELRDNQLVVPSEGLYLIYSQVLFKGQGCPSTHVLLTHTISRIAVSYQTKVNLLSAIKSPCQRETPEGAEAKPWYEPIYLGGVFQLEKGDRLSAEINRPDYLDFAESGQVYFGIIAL

IL-17A (human), sequence (Q16552 24-155 limits assumed): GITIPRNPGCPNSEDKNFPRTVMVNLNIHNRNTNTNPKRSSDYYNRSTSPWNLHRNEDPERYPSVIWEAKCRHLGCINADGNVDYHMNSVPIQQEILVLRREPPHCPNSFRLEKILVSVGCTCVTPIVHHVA

**Q.** What does the source list for Cosentyx (antibody)?
**A.** Kd [1]: 0.0787 nM; koff [1]: 6.12e-05 s⁻¹; kon [1]: 778000 M⁻¹ s⁻¹

**Q.** Humira (antibody) was tested. Which Kd [2] did it give?
**A.** 0.16 nM

**Q.** And the koff [2]?
**A.** 0.00015 s⁻¹

**Q.** And the kon [2]?
**A.** 941000 M⁻¹ s⁻¹
